Where no end group is shown, it is not given here. [ ]: non-standard residue; d: D form. pT = C[C@@H](OP(=O)(O)O)[C@H](N)C(=O)O; NMeE = CN[C@@H](CCC(=O)O)C(=O)O; pS = N[C@@H](COP(=O)(O)O)C(=O)O; NMeD = CN[C@@H](CC(=O)O)C(=O)O
Molecular target: FBXW7 (Homo sapiens, UniProt Q969H0)
Experiment: Peptides immobilised on membranes screened for the ability to bind FBXW7
Type: binding
Description: Peptides derived from DISC1 and containing the putative phospho-degron motif were immobilised on membranes and screened for the ability to bind FBXW7. […] (SEQ ID NO: 114).
The 7-mer peptide P-pT-P-P-G-pS-H (SEQ ID NO: 21) was used as the basis for further investigation. L- and D-forms of aspartic acid and glutamic acid (upper and lower case letters respectively) as well as N-methylated versions of each (designated “m”) were incorporated at positions 198 and 202.

FBXW7, sequence (Q969H0 whole entry): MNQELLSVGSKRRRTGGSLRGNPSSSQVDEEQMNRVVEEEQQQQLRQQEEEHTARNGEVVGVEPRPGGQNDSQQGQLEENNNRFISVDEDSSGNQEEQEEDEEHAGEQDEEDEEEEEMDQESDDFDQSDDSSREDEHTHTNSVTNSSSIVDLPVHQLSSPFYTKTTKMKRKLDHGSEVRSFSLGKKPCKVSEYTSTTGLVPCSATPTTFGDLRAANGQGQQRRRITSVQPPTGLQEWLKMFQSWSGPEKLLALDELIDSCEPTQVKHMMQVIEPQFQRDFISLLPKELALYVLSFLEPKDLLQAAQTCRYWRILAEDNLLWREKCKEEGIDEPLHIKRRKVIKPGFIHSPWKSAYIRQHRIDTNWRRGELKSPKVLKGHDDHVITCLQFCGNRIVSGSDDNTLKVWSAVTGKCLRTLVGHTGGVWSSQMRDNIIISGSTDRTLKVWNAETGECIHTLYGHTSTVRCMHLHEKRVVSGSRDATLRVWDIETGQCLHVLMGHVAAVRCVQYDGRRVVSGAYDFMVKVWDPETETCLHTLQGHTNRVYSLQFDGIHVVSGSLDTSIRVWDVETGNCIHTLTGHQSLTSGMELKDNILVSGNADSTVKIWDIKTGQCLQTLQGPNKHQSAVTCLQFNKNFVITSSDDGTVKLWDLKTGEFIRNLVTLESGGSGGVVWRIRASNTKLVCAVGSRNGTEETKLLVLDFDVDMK

Substance: d-P-P-G-mE-H ([dD]PPG[NMeE]H) [Peptide A86]
- binding to FBXW7: retain or have improved binding to FBXW7

Substance: P-E-P-P-Q-mD-H (PEPPQ[NMeD]H) [Peptide A151]
- binding to FBXW7: retain or have improved binding to FBXW7

Substance: a-d-P-P-a-mE-k ([dA][dD]PP[dA][NMeE][dK]) [Peptide A197]
- binding to FBXW7: retain or have improved binding to FBXW7

Substance: e-P-P-G-mE-H ([dE]PPG[NMeE]H) [Peptide A26]
- binding to FBXW7: retain or have improved binding to FBXW7

Substance: G-d-p-P-G-mE-H (G[dD][dP]PG[NMeE]H) [Peptide A180]
- binding to FBXW7: retain or have improved binding to FBXW7

Substance: G-d-P-A-G-mE-K (G[dD]PAG[NMeE]K) [Peptide A192]
- binding to FBXW7: retain or have improved binding to FBXW7

Substance: P-e-p-P-G-mE-H (P[dE][dP]PG[NMeE]H) [Peptide A136]
- binding to FBXW7: retain or have improved binding to FBXW7

Substance: P-e-P-P-G-mE (P[dE]PPG[NMeE]) [Peptide A124]
- binding to FBXW7: retain or have improved binding to FBXW7

Substance: P-pT-P-P-G-pS-H [P-pT-P-P-G-pS-H] (P[pT]PPG[pS]H)
- binding to FBXW7: retain the ability to bind FBXW7

Substance: G-mE-P-p-G-mE-H (G[NMeE]P[dP]G[NMeE]H) [Peptide A76]
- binding to FBXW7: retain or have improved binding to FBXW7

Substance: G-mD-P-P-Q-mE-H (G[NMeD]PPQ[NMeE]H) [Peptide A52]
- binding to FBXW7: retain or have improved binding to FBXW7

Substance: p-d-P-P-G-mE-h ([dP][dD]PPG[NMeE][dH]) [Peptide A184]
- binding to FBXW7: retain or have improved binding to FBXW7

Substance: P-d-P-P-G-mE (P[dD]PPG[NMeE]) [Peptide A85]
- binding to FBXW7: retain or have improved binding to FBXW7

Substance: P-pT-P-P-G-pS-H-S (P[pT]PPG[pS]HS)
- binding to FBXW7: retain the ability to bind FBXW7

Substance: L-mD-P-P-G-mE-H (L[NMeD]PPG[NMeE]H) [Peptide A58]
- binding to FBXW7: retain or have improved binding to FBXW7

Substance: G-d-P-P-G-mE [Peptide A5]
- binding to FBXW7: retain or have improved binding to FBXW7

Substance: a-d-P-P-a-mE-h ([dA][dD]PP[dA][NMeE][dH]) [Peptide A165]
- binding to FBXW7: retain or have improved binding to FBXW7

Substance: G-A-P-P-G-mE-H (GAPPG[NMeE]H) [Peptide A22]
- binding to FBXW7: retain or have improved binding to FBXW7

Substance: a-d-P-p-a-mE-h ([dA][dD]P[dP][dA][NMeE][dH]) [Peptide A168]
- binding to FBXW7: retain or have improved binding to FBXW7

Substance: P-pT-P-P-G-pS-H [A119] (P[pT]PPG[pS]H) [Peptide A119]
- binding to FBXW7: retain or have improved binding to FBXW7

Substance: l-e-P-P-G-mE-H ([dL][dE]PPG[NMeE]H) [Peptide A138]
- binding to FBXW7: retain or have improved binding to FBXW7

Substance: P-E-P-P-G-d-H (PEPPG[dD]H) [Peptide 16]
- binding to FBXW7: retain or have improved binding to FBXW7

Substance: G-d-p-p-G-mE-H (G[dD][dP][dP]G[NMeE]H) [Peptide A172]
- binding to FBXW7: retain or have improved binding to FBXW7

Substance: G-mD-P-P-G-mE (G[NMeD]PPG[NMeE]) [Peptide A45]
- binding to FBXW7: retain or have improved binding to FBXW7

Substance: G-d-P-P-a-mE-k (G[dD]PP[dA][NMeE][dK]) [Peptide A196]
- binding to FBXW7: retain or have improved binding to FBXW7

Substance: G-e-P-P-G-mE (G[dE]PPG[NMeE]) [Peptide A25]
- binding to FBXW7: retain or have improved binding to FBXW7

Substance: P-E-P-P-G-mD (PEPPG[NMeD]) [Peptide A144]
- binding to FBXW7: retain or have improved binding to FBXW7

Substance: P-pT-P-P-G-pS-H [A100] (P[pT]PPG[pS]H) [Peptide A100]
- binding to FBXW7: retain or have improved binding to FBXW7

Substance: a-e-P-P-G-mE-H ([dA][dE]PPG[NMeE]H) [Peptide A130]
- binding to FBXW7: retain or have improved binding to FBXW7

Substance: P-d-P-P-G-mE-k (P[dD]PPG[NMeE][dK]) [Peptide A195]
- binding to FBXW7: retain or have improved binding to FBXW7

Substance: P-P-pT-P-P-G-pS-H (PP[pT]PPG[pS]H)
- binding to FBXW7: retain the ability to bind FBXW7

Substance: G-mE-P-P-q-mE-H (G[NMeE]PP[dQ][NMeE]H) [Peptide A73]
- binding to FBXW7: retain or have improved binding to FBXW7

Substance: P-pT-P-P-G-pS-H [A80] (P[pT]PPG[pS]H) [Peptide A80]
- binding to FBXW7: retain or have improved binding to FBXW7

Substance: a-d-p-P-G-mE-H ([dA][dD][dP]PG[NMeE]H) [Peptide A162]
- binding to FBXW7: retain or have improved binding to FBXW7

Substance: L-e-P-P-G-mE-H (L[dE]PPG[NMeE]H) [Peptide A137]
- binding to FBXW7: retain or have improved binding to FBXW7

Substance: P-P-G-mE-H (PPG[NMeE]H) [Peptide A189]
- binding to FBXW7: retain or have improved binding to FBXW7

Substance: a-mE-P-P-G-mE-H ([dA][NMeE]PPG[NMeE]H) [Peptide A71]
- binding to FBXW7: retain or have improved binding to FBXW7

Substance: G-d-P-a-G-mE-k (G[dD]P[dA]G[NMeE][dK]) [Peptide A193]
- binding to FBXW7: retain or have improved binding to FBXW7

Substance: a-d-P-P-G-mE-h ([dA][dD]PPG[NMeE][dH]) [Peptide A164]
- binding to FBXW7: retain or have improved binding to FBXW7

Substance: P-e-P-P-Q-mE-H (P[dE]PPQ[NMeE]H) [Peptide A131]
- binding to FBXW7: retain or have improved binding to FBXW7

Substance: L-d-P-P-G-mE-H (L[dD]PPG[NMeE]H) [Peptide A98]
- binding to FBXW7: retain or have improved binding to FBXW7

Substance: P-A-P-P-G-mD-H (PAPPG[NMeD]H) [Peptide A102]
- binding to FBXW7: retain or have improved binding to FBXW7

Substance: G-d-P-P-Q-mE-H (G[dD]PPQ[NMeE]H) [Peptide A12]
- binding to FBXW7: retain or have improved binding to FBXW7

Substance: P-pT-P-P-G-pS-H [A185] (P[pT]PPG[pS]H) [Peptide A185]
- binding to FBXW7: retain or have improved binding to FBXW7

Substance: P-e-P-P-q-mE-H (P[dE]PP[dQ][NMeE]H) [Peptide A132]
- binding to FBXW7: retain or have improved binding to FBXW7

Substance: l-mE-P-P-G-mE-H ([dL][NMeE]PPG[NMeE]H) [Peptide A79]
- binding to FBXW7: retain or have improved binding to FBXW7

Substance: GPEVPPTPPGSHSAFTSSFSFIRL (listed as Homo sapiens)
- binding to FBXW7: Detectable binding

Substance: P-E-P-P-G-mD-H (PEPPG[NMeD]H) [Peptide 64]
- binding to FBXW7: retain or have improved binding to FBXW7

Substance: G-d-p-p-a-mE-H (G[dD][dP][dP][dA][NMeE]H) [Peptide A173]
- binding to FBXW7: retain or have improved binding to FBXW7

Substance: P-e-P-P-G-mD-H (P[dE]PPG[NMeD]H) [Peptide A101]
- binding to FBXW7: retain or have improved binding to FBXW7

Substance: G-d-P-p-a-mE-H (G[dD]P[dP][dA][NMeE]H) [Peptide A170]
- binding to FBXW7: retain or have improved binding to FBXW7

Substance: P-e-P-p-G-mE-H (P[dE]P[dP]G[NMeE]H) [Peptide A135]
- binding to FBXW7: retain or have improved binding to FBXW7

Substance: p-d-P-P-G-mE-H ([dP][dD]PPG[NMeE]H) [Peptide A181]
- binding to FBXW7: retain or have improved binding to FBXW7

Substance: P-d-p-P-G-mE-H (P[dD][dP]PG[NMeE]H) [Peptide A97]
- binding to FBXW7: retain or have improved binding to FBXW7

Substance: G-mD-P-p-G-mE-H (G[NMeD]P[dP]G[NMeE]H) [Peptide A56]
- binding to FBXW7: retain or have improved binding to FBXW7

Substance: P-d-P-P-G-mE-H (P[dD]PPG[NMeE]H) [Peptide 82]
- binding to FBXW7: retain or have improved binding to FBXW7

Substance: P-e-P-P-G-mE-H (P[dE]PPG[NMeE]H) [Peptide 55]
- binding to FBXW7: retain or have improved binding to FBXW7

Substance: G-e-P-P-G-mE-H (G[dE]PPG[NMeE]H) [Peptide 147]
- binding to FBXW7: retain or have improved binding to FBXW7

Substance: G-d-p-p-G-mE-h (G[dD][dP][dP]G[NMeE][dH]) [Peptide A174]
- binding to FBXW7: retain or have improved binding to FBXW7

Substance: G-d-P-P-q-mE-H (G[dD]PP[dQ][NMeE]H) [Peptide A13]
- binding to FBXW7: retain or have improved binding to FBXW7

Substance: a-d-p-p-a-mE-h ([dA][dD][dP][dP][dA][NMeE][dH]) [Peptide A169]
- binding to FBXW7: retain or have improved binding to FBXW7

Substance: G-d-P-p-a-mE-h (G[dD]P[dP][dA][NMeE][dH]) [Peptide A171]
- binding to FBXW7: retain or have improved binding to FBXW7

Substance: a-d-P-P-a-mE-H ([dA][dD]PP[dA][NMeE]H) [Peptide A166]
- binding to FBXW7: retain or have improved binding to FBXW7

Substance: G-d-p-p-a-mE-h (G[dD][dP][dP][dA][NMeE][dH]) [Peptide A175]
- binding to FBXW7: retain or have improved binding to FBXW7

Substance: P-d-P-P-G-mE-K (P[dD]PPG[NMeE]K) [Peptide A194]
- binding to FBXW7: retain or have improved binding to FBXW7

Substance: P-pT-P-P-G-pS-H [A139] (P[pT]PPG[pS]H) [Peptide A139]
- binding to FBXW7: retain or have improved binding to FBXW7

Substance: P-A-P-P-G-mE-H (PAPPG[NMeE]H) [Peptide A82]
- binding to FBXW7: retain or have improved binding to FBXW7
